According to the DeepSol protein solubility set:

assay: soluble on expression in E. coli; label from the status in PepcDB or PDB records

Soluble on expression in E. coli, soluble:
STSCVAEEPIKKIAIFGGTHGNELTGVFLVTHWLKNGAEVHRAGLEVKPFITNPRAVEKCTRYIDCDLNRVFDLENLSKEMSEDLPYEVRRAQEINHLFGPKNSDDAYDVVFDLHNTTSNMGCTLILGDSGNDFLIQMFHYIKTCMAPLPCSVYLIEHPSLKYATTRSIAKYPVGIEVGPQPHGVLRADILDQMRRMLKHALDFIQRFNEGKEFPPCAIDVYKIMEKVDYPRNESGDVAAVIHPNLQDQDWKPLHPGDPVFVSLDGKVIPLGGDCTVYPVFVNEAAYYEKKEAFAKTTKLTLNAKSIRSTLH
STSTSGLTARISQTLFTSNSFVEEVASILQHWDTGLEASKRRIQDAKEKNSTVLDLQQLELSNEIFNELWPSIREIRNLKYLNLFLNRLTELPSDFGALSTLETLNLACNPLQSVPDSFSDLAMLRELDLGFTSTLCTVPEIFEKMTQLKVLYAGNNRLEKLPESVISLQCLEELHLYGNALNALPENIGNLKSLRLLNVGRNNLSSLPNSIGSLSSLEVLYLYENDLSSLPRSMKDLSKLRVLGLDGNPSLSSLPEHIKEPNAKAVAAYYAEME
STTGLVTPGDVIGKATEFKAGKGAYVNDATIYASLTGTCRIVSPLPESIDQRAIVEVTGHKAHGPIPETGSVVIARVTKVMTKMAAVDILCVGSKAVRENFAGVIRQQDVRATEIDKVDMHQSFHAGDIVRAMVLSLGDARAYYLSTAKNELGVVSAESAAGETMVPISWTEMQCPLSGQTEQRKVAKVGN
SVIRELNKNWQSHAFDGFEVNWTEQQQMVSCLYTLGYPPAQAQGLHVTSISWNSTGSVVACAYGRLDHGDWSTLKSFVCAWNLDRRDLRPQQPSAVVEVPSAVLCLAFHPTQPSHVAGGLYSGEVLVWDLSRLEDPLLWRTGLTDDTHTDPVSQVVWLPEPGHSHRFQVLSVATDGKVLLWQGIGVGQLQLTEGFALVMQQLPRSTKLKKHPRGETEVGATAVAFSSFDPRLFILGTEGGFPLKCSLAAGEAALTRMPSSVPLRAPAQFTFSPHGGPIYSVSCSPFHRNLFLSAGTDGHVHLYSMLQAPPLTSLQLSLKYLFAVRWSPVRPLVFAAASGKGDVQLFDLQKSSQKPTVLIKQTQDESPVYCLEFNSQQTQLLAAGDAQGTVKVWQLSTEFTEQGPREAEDLDCLAAEVAA
SVKVVIEADGGSRGNPGPAGYGAVVWTADHSTVLAESKQAIGRATNNVAEYRGLIAGLDDAVKLGATEAAVLMDSKLVVEQMSGRWKVKHPDLLKLYVQAQALASQFRRINYEWVPRARNTYADRLANDAMDAAAQSAAAD
SVLVLDDRIVDAATKDLYVNGFQEEIQYQNPTPENLQHMFHQGIEILDSARMINVTHLALWKPSSFKLGNPVDFALDDNYDTFWQSDGGQPHQLDIMFSKRMDICVMAIFFSMIADESYAPSLVKVYAGHSPSDARFYKMLEVRNVNGWVALRFLDNREDDQLLKCQFIRLLFPVNHENGKDTHLRGIRLYVPSNEPHQDTHEWAQTLPETNNVFQDAILR
SVNAATVDLRIMETTDLHSNMMDFDYYKDAATEKFGLVRTASLIEQARAEVKNSVLVDNGDVIQGSPLGDYMAAKGLKEGDVHPVYKAMNTLNYAVGNLGNHEFNYGLDFLHKALAGAKFPYVNANIIDAKTGKPMFTPYLIQDTRVVDSDGQIHTLRIGYIGFVPPQIMTWDKANLNGKVTVNDITETARKYIPEMRAKGADVVVVVAHSGLSADPYQAMAENSVYYLSQVPGVDAIMFGHAHAVFPGKDFANIKGADIAKGTLNGVPAVMPGMWGDHLGVVDLVLNNDSGKWQVTQSKAEARPIYDAVAKKSLAAEDGKLVSVLKADHDATREFVSK
SVNYYKVLGVPRNASSSDIKRAFHQLALQVHPDKNPGDKEAAEEKFKQVAEAYHILSDAKKRKDYDRSRWNRNKGEIRGDGHDKGETIRVNDSRDETDWEEKICSRRPRHTFQKVTEDEDLFSGDCLFSGPITGSRRASSPFFTVTPIMDTGFSTFVSHESRSYSDDPETFVPYISQGMGKFRLVTTCSKTVNGKRVVTKRVVENIRGPKKIENERLFRHNPSRGWKLMENPCS
SVREANIKQATAEKQLKEAQGKIDVLQAEVAALKTLVLSSSPTSPTQEPLPGGKTPFKKGHTRNKSTSSAMSGSHQDLSVIQPIVKDCKEADLSLYNEFRLWKDEPTMDRTCPFLDKIYQEDIFPCLTFSKSELASAVLEAVENNTLSIEPVGLQPIRFVKASAVECGGPKKCALTGQSKSCKHRIKLGDSSNYYYISPFCRYRITSVCNFFTYIRYIQQGLVKQQDVDQMFWEVMQLRKEMSLAKLGYFKEEL
